Assay results reported in patent US20220127365A1.

Assays:
human CD94 (human) [1] = molecular target: human CD94 (human) (UniProt Q13241); test: HLA-E tetramer blocking on healthy-donor PBMC NK cells, flow cytometry; competitor HLA-E tetramer
human CD94 (human) [2] = molecular target: human CD94 (human) (UniProt Q13241); test: table column 'Affinity on human NK cells'; flow cytometry titration on human primary NK cells (the filing gives these affinities as EC50 of the titration curve)
human CD94 (human) [3] = molecular target: human CD94 (human) (UniProt Q13241); test: table column 'HLA-E blocking'; flow cytometry on NK cells of healthy donor PBMCs, antibody at saturating concentration, blocked ligand PE labeled HLA-E tetramer; percent blocking = 100-((percent HLA-E positive with antibody)/(percent HLA-E positive with isotype)*100)
human CD94 (human) [4] = molecular target: human CD94 (human) (UniProt Q13241); test: competition assay, flow cytometry on NK cells of healthy donor PBMCs; labeled HP-3B1 titrated, concurrently Human IgG1 control
human CD94 (human) [5] = molecular target: human CD94 (human) (UniProt Q13241); test: competition assay, flow cytometry on CD3-CD56+ NK cells of healthy donor PBMCs; labeled HP-3B1 titrated in the presence of 1E4 at 11 µg/ml
human CD94 (human) [6] = molecular target: human CD94 (human) (UniProt Q13241); test: competition assay, flow cytometry on CD3-CD56+ NK cells of healthy donor PBMCs; labeled HP-3B1 titrated, concurrently Human IgG1 control (or 18H3 at 1.3 µg/ml)

Sequence of human CD94 (human) (Q13241 whole entry): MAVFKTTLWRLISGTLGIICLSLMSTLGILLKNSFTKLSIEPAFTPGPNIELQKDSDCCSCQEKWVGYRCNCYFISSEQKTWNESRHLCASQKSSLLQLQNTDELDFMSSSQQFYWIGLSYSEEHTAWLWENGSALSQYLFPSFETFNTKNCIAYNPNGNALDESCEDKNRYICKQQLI

Row | Substance | percent HLA-E blocking (human CD94 (human) [1]) | Affinity on human NK cells (human CD94 (human) [2]) | HLA-E blocking (human CD94 (human) [3]) | EC50 (read off the curve) (human CD94 (human) [4]) | EC50 (read off the curve) (human CD94 (human) [5]) | EC50 (read off the curve) (human CD94 (human) [6])
1 | anti-CD94 antibody clone DX22 | > 40% | 0.15 nM | 99% | – | – | –
2 | anti-CD94 antibody clone HP-3B1 | > 40% | 3 nM | 99.8% | 3 nM | 2 nM | 3 nM
